Patent US20140286957A1 (Teva, published 2014)
Where two headings read alike, the source gives them in different places.

T1: Human CD1d on cells (human, UniProt P15813 20-335)
T1 sequence (looked up): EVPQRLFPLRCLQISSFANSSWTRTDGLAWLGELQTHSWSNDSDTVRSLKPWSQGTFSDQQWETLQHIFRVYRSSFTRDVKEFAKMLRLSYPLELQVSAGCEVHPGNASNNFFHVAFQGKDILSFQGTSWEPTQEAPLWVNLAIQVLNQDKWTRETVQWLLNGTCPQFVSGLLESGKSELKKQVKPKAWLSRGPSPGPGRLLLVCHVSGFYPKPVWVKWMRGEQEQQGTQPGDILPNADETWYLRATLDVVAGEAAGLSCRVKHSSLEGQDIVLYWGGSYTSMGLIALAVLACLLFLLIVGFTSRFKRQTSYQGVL


Tests used:
Human CD1d/β2M [1] = biological target: T2, Human CD1d/β2M (human, UniProt P15813 20-301; P61769 21-119); assay: direct ELISA, plate coated with 1 µg/mL human CD1d, HRP anti-human kappa detection
T2 construct: also called hCD1d; recombinant human CD1d

Human CD1d/β2M [2] = biological target: T2, Human CD1d/β2M; assay: SPR, Protein A purified IgG
Human CD1d on cells [3] = biological target: T1, Human CD1d on cells; assay: cell-based or functional assay
Human CD1d on cells [4] = biological target: T1, Human CD1d on cells; assay: cell-based or functional assay; remark: listed apart in the source

Binder | EC50 (read off the curve) (Human CD1d/β2M [1]) | Kd (Human CD1d/β2M [2]) | NKT IFN-γ EC50 (moDC) (Human CD1d on cells [3]) | NKT IL-13 EC50 (moDC) (Human CD1d on cells [3]) | NKT IFN-γ EC50 (moDC) (Human CD1d on cells [4]) | NKT IL-4 EC50 (moDC) (Human CD1d on cells [4])
FAb 401.11.165 (Fab, V domains shown, Made by papain digest of the IgG4) VH: EVQLVESGGGLVQPGRSLRLSCAASGFTFDDYAMHWVRQAPGKGLEWVATIIWNSAIIGYADSVKGRFIVSRDNAKNSLYLQMNSLRAEDTALYYCAKDMCSSGGCPDGYFDSWGQGTLVTVSS VL: DIQMTQSPSSVSASVGDRVTITCRASQHISSWLAWYQQKPGKAPKLLIYAASSLQSGVPSRFSGSGSGTDFTLTISSLQPEDFATYYCQQANRFPLTFGGGTKLEIKR | ~60 ng/mL |  |  |  |  | 
402.8.60 (antibody, IgG4, V domains shown, IgG4 (S228P)) VH: QVQLQESGPGLVRPSETLSLTCAVYGGSFSGYYWSWIRQPPGKGLEWIGEINHSGSTNYNPSLKSRVTISVDTSKNQFSLKLSSVTAADTAVYYCARGEIYDFYNSYMDVWGKGTTVTVSS VL: QTVVTQEPSLTVSPGGTVTLTCASSSGAVSSGNFPNWFQQKPGQAPRALIFSASNKHSWTPARFSGSLLGGKAVLTLSGVQPEDEAEYYCLLYFGDTQLGVFGGGTKVTVLG |  | 198 pM | 0.244 ng/mL | 0.189 ng/mL | 24.7 ng/mL | 26.8 ng/mL
402.8.87 (antibody, IgG4, V domains shown, IgG4 (S228P)) VH: QVQLQESGPGLVKPSETLSLTCAVYGGSFSGYYWSWIRQPPGKGLEWIGEINHAGSTNYNPSLKSRVTISVDTSKNQFSLKLSSVTAADTAVYYCARGEIYDFYKSYMDVWGKGTTVTVSS VL: QTVVTQEPSLTVSPGGTVTLTCASSSGAVSSGNFPNWFQQKPGQAPRALIFSASNKHSWTPARFSGSLLGGKAVLTLSGVQPEDEAEYYCLLYFGDTQLGVFGGGTKVTVLG |  | 344 pM |  |  | 25.9 ng/mL | 1.01 ng/mL
402.8.84 (antibody, IgG4, V domains shown, IgG4 (S228P)) VH: QVQLQESGPGLVKPSETLSLTCAVYGGSFSGYYWSWIRQPPGKGLEWIGEINHAGSTNYNPSLKSRVTISVDTSKNQFSLKLSSVTAADTAVYYCARGEIYDFYKSYLDVWGKGTTVTVSS VL: QTVVTQEPSLTVSPGGTVTLTCASSSGAVSSGNFPNWFQQKPGQAPRALIFSASNKHSWTPARFSGSLLGGKAVLTLSGVQPEDEAEYYCLLYFGDTQLGVFGGGTKVTVLG |  | 587 pM | 0.516 ng/mL | 0.663 ng/mL | 30.6 ng/mL | 0.593 ng/mL
